The values that follow are results of earlier work, collected in patent publication US20120122716A1, “CELL LINE DERIVED FROM THE EPITHELIAL LINING OF THE HUMAN ENDOLYMPHATIC SAC IN THE INNER EAR” (priority 2010, published 2012).

For this data set, the system named is beta defensin 2. Particulars: HMEEC-1 cells; via Src-dependent Raf-MEK1/2-ERK signaling pathway.

B1: IL-1α: interleukin 1 alpha, cytokine (protein, UniProt P01583 113-271, looked up)
Interleukin-1 alpha: SAPFSFLSNVKYNFMRIIKYEFILNDALNQSIIRANDQYLTAAALHNLDEAVKFDMGAYKSSKDDAKITVILRISKTQLYVTAQDEDQPVLLKEMPEIPKTITGSETNLLFFWETHGTKNYFTSVAHPNLFIATKQDYWVCLAGGPPSITDFQILENQA
As for B1, the “beta defensin 2 expression” value was “up-regulate”.
